{"source": "paper PMC6069116", "molecular_target": "HrpG/HrpV complex from Erwinia amylovora, separately produced (Erwinia amylovora)", "experiment": "SEC-MALS", "data": [{"substance": "HrpJ from Erwinia amylovora, separately produced and purified (natural protein)", "values": [{"measurement": "stoichiometry N (HrpG:HrpV:HrpJ)", "value": 1}]}]}
